Experiment: yeast display, Sf9 membrane polyspecificity reagent, FACS + sequencing; frameworks hold sequencing errors
How it was run: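 In a synthetic yeast display library (Saccharomyces cerevisiae BJ5465), nanobody expression was induced with galactose for 36–48 hours. FACS gates were set low and high (top ~1%) using anti-HA fluorescence for expression and streptavidin fluorescence for binding of the Sf9 membrane reagent. Each polyreactivity label is drawn from the gate of origin.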

Sequence | polyreactivity (PSR sort gate)
QVQLEESGGGLVQAGGSLRLSCAASGLIFWAYAMGWYRQAPGKDTELVAAINWRGGSTYYADSVKGRFTISRDNAKNTVYLQMNSLKPEDTAVYFCAGDSSYDEYDYWGQGTQVTVSS | low polyreactivity
QVQLEESGGGLVQAGGSLRLSCAASGMILTYYAMAWNRQAPGKERELVAGISSGTNTNYADSVKWRFTISRDNAKNTVYLQMNSLKPEDTAVYYCANTRGYEFVAYGYWGQGTQVNVSS | low polyreactivity
QVQLEESGGGLVQAGGSLRLSCAASGNIFYYYAMGWYRQAPGKEREVVATITSGGSTNYADSVKGRFTISRDNAKNTVYLQMNSLKPEDTAVYYCAADRRRTYYWLSSYFEGYYWGQGTQVTVSS | low polyreactivity
QVQLEESGGGLVQAGGSLRLSCAASGNTFYLYAMGWYRQAPGKERELVASITGGTRTNYADSVKGRFTISRDNAKNTVYLQMNSLKPEDTAVYYCAKTYPRTVGKYLSRGGYYYWGQGTQVTVSS | high polyreactivity
QVQLEESGGGLVQAGGSLRLSCAASGPIFVGYAMGWSRQAPGKEREFLAAISRDGDNTFYADSVKGRFTISRDYAKNTVYLQMYSLKPEDTAVYYCAVDYWVWYGCAYAYDYYWGQGTQVSVSS | low polyreactivity
QVQLEESGGGLVQAGGSLRLSCAASGRIFDDNAMGWYRQAPGKERELVAAISSGDSTKYADSVKGRFTISRDNAKNTVYLQMNSLKPEDTAVYYCAAERNHGLVGSESVGRNDYWGQGTQVTVSS | low polyreactivity
QVQLEESGGGLVQAGGSLRLSCAASGRIFGYYAMGWYRKAPGKERELVAAIRRSGASTYYADSVKGRFTISRDNAENTVYLQMYSLKPVDTAVYYCSQAGYSPVYGYWGQGTQVTVSS | high polyreactivity
QVQLEESGGGLVQAGGSLRLSCAASGRIFGYYAMGWYRQAPGKERELVATITFGGGSTYYADSVKGRFTISRDNAKNTVYLQMNSLKPEDTAVYYCAADSGYLGIYGDEYSWGQGTQVTVSS | low polyreactivity
QVQLEESGGGLVQAGGSLRLSCAASGRIFIRNAMGWYRQAPGKERELVAAISYSGGSTYYADSVKGRFTISRDNAKNTVYLQMNSLKPEDTAVYYCAAGSIRGTSFYYWGQGTQVTVSS | high polyreactivity
QVQLEESGGGLVQAGGSLRLSCAASGRIFQYYVRGWYRQAPGKERELVAAITRRGTNTYYADSVKGRFTISRDNAKNTVYLQMHSLNPEETAVYYCAATYYWSGYPVKTTSDYWGQGTQITVSS | high polyreactivity
QVQLEESGGGLVQAGGSLRLSCAASGRIFYAYGIGWYRQAPVKERELVAAISSGDSTNYADSVKGRFTISRDNAKNTVYFQMNSLKPEDTAVYYCAKDGSPLQLTDPTHDYEYWGQGTQVTVSS | low polyreactivity
QVQLEESGGGLVQAGGSLRLSCAASGRIFYRNAMGWYRQAPGKERELVAAISSSAGSTYYADSVKGRFTISRDHAKNTVYLQMNSLKPEDTAVYYCAAGSGTFVTRYRYDYWGQGTQVTVSS | high polyreactivity
QVQLEESGGGLVQAGGSLRLSCAASGRIFYWYAMGWYRQAPGKERELVATISSAGTTYYADSVKGRFTISRDNAKNTVYLQMNSLKPEDTAVYYCAVPRVGLHGIGSDYWGQGTQVTVSS | high polyreactivity
QVQLEESGGGLVQAGGSLRLSCAASGRILRGYVMGWYRQAPGKERELVATITGRGGSTYYADSVKGRFTISRDNAKNTVYLQMNSLKPEDTAVYYCNKDGYPYFGRSEYWGQGTQVTVSS | low polyreactivity
QVQLEESGGGLVQAGGSLRLSCAASGRILYGYAKGSYRQAPGKERELVASITWSGGSTYADSVKGRFTFSRDNAKNTVYLQMNSLKTEDTSVYYCSTRRGQKWQWLTYGYWGQGTQVTVSS | low polyreactivity
QVQLEESGGGLVQAGGSLRLSCAASGRSFNHNAMGWYRQAPGKERELVAAINQSGSSTYYADSVKGRFTISRDNAKNTVYLQMNSLKREDTAVYYCAAVCNGVDYEYWGQGTQVTVSS | low polyreactivity
QVQLEESGGGLVQAGGSLRLSCAASGRTFGWNVMGWYRQAPGKERELVAAISGGGTSTYYADSVKGRFTISRDNAKNTVYLQMNSLNPEDTAVYYCNAYYPGSYYPRSGRYDYWGQGTQVTVSS | high polyreactivity
QVQLEESGGGLVQAGGSLRLSCAASGRTFKINAMGWYRQAPGKERELVAAIRRRGGSTYYADSVKGRFTISRDNAKNTVYLQMNSLKPEDTAVYYCAKTSWPYRVPSDSVAYDYWGQGTQVTVSS | low polyreactivity
QVQLEESGGGLVQAGGSLRLSCAASGRTFRFYAMGWYRQAPGKERELVAAISESGGNTYYADSVKGRFTISRDNAKNTVYLQMNSLKPEDTAVYYCAARGRWKYNYWGQGTQVTVSS | high polyreactivity
QVQLEESGGGLVQAGGSLRLSCAASGRTFSANTMGLYRKATGKERELVAAISKSGGSTYYADSVKGRLTISRDTAKYTVYLQMNSLNPEDTAVYYCAARTSGYWYSYGSWGQGTQVTVSS | high polyreactivity
QVQLEESGGGLVQAGGSLRLSCAASGRTFSVNPMRWYRQAPGKERELVAAISWSTGSTYYADSVKGRFTISRDNAKNTVYLQMNSLKPEDTAVYYCAKLYEYRRSRYRTYGYWGQGTQVTVSS | high polyreactivity
QVQLEESGGGLVQAGGSLRLSCAASGRTFYIYAMGWYRQAAGKERELVAAITWSGGTTYYADSVKGRFTISRDNAKNTVYLQMNSLKPEDTAVYDCNAGATYVKRRRGRKYDYWGQGTQVTVSS | low polyreactivity

Sequence | polyreactivity (PSR sort gate)
QVQLEESGGGLVQAGGSLRLSCAASGRTLKVYAMGWYRTAPGKERELVAAINNGGSTNYADSVKGRFTISRDNAKNTVFLQMNSLKPEDTAVYYFNAVYYARFRKYTYYYWGQGTQVTVSS | high polyreactivity
QVQLEESGGGLVQAGGSLRLSCAASGRTSRVYAMGWYRQAPGKERELVAAITWRGGNTYYADSVKGRFTISRDNAKNTVYLQMNSLKPEDTAVYYCARDNGSPYHYYYWGQGTQVTVSS | high polyreactivity
QVQLEESGGGLVQAGGSLRLSCAASGSIFDYYAMGWYRQAPGTERELVATITSGVSTYYADSVKGRFTISRDNAKNTVYLQMNSLKPEETAVYYCARDYAKSQDVYKYDYWGQGTQVTVSS | low polyreactivity
QVQLEESGGGLVQAGGSLRLSCAASGSIFEGNGMGWYRPAPGKERELVAAITFRSGSTYYADSVKGRFTISRDNAKNTVYLQMNSLKPEDTAVYYCAADEYYKVSAYDFWGQGTQVTVSS | low polyreactivity
QVQLEESGGGLVQAGGSLRLSCAASGSIFFEYAMGWYRQAAGKERELVASINRGGGSTYYADSVKGRYTISRDNAKKNVYLQMNSLKPEDTAVYYCAAQWKYRQSYLDYYWGQGTQVTVSS | low polyreactivity
QVQLEESGGGLVQAGGSLRLSCAASGSIFLGNAMGWYRQAPGKERDLVAAISGGDSTNYADAVKGRFTISRDNAKNTGYLEMNCLKPEDTAVYYCNAVRTLYIWWPGYYYCGQGTQVTVSS | low polyreactivity
QVQLEESGGGLVQAGGSLRLSCAASGSIFSPNAMGWYRQAPGKERELVAAISSNGVSTYYADSVKGRFTISRDNAKNTVYLQMNSLKPEDTAVYYCAAVSIGPGEYDYWGQGTQVTVSS | low polyreactivity
QVQLEESGGGLVQAGGSLRLSCAASGSIFTNAMGWYRQAPGKERELVAAISSSGGSTYYADSVKGRFTISRDNAKNTVYLQMNSLKPEDTAVYYCAADHYGGRDYWGQGTQVTVSS | low polyreactivity
QVQLEESGGGLVQAGGSLRLSCAASGSIFVYNAMGWYRQAPGKERELVAAISQRGGSTYYADSVKGRFTISRDNDKNTVYLQMNSLKPEDTAVYYCAAGPGDSGDDYWGQGTQVTVAS | low polyreactivity
QVQLEESGGGLVQAGGSLRLSCAASGSIFVYYAMGWYRQAPGKERELVAAISSSGTSTYYADSVKGRFTISRDNAKNTVYLQMNSLKPEDTAVYYCATTRRYAYRGGHNYWGQGTQVTVSS | high polyreactivity
QVQLEESGGGLVQAGGSLRLSCAASGSIFYTYAMGWYRQAPGTERELVAAISRSGGSTYYADSVKGRFTISRDNAKNTVYLQMNSLKPEDTSVYYCAARPPYRVGIVPLGRREYYWGQGTQVTVSS | high polyreactivity
QVQLEESGGGLVQAGGSLRLSCAASGSILPKYDMGWSRQAPGKERELVAAITRTGGRTYYADSVKGRFTISRDYAKNTVYLQMNSLKPEDTAVYFCAVRGFFWSTRSYRIRSEYDYWGQGTQVTVSS | low polyreactivity
QVQLEESGGGLVQAGGSLRLSCAASGSTFDVYAMGWYRQAPGKERELVAAISRSGGSTYYADSVKGRFTISRDTAKTTVYLQMNSLQPEDTAVYYCNARLARWGSYEYNYWGQGTQVTVSS | low polyreactivity
QVQLEESGGGLVQAGGSLRLSCAASGSTFESYAMGWYRQAPGKERELVAAISWRVGSTYYADSVKGRFTISRDNAKNTFYLQMNILKPEDTAVYYCASKGWYSHYGGYDYWGQGTQVTVSS | low polyreactivity
QVQLEESGGGLVQAGGSLRLSCAASGSTFHINAMGWYRQAPGKEREFVADINWSGGSTYYADSVKVSFTISRDNAKNTVYLQMNSLKPADTAVYYFAADVGVFTYSPYDAGEHDYWGQGTLVTVSS | low polyreactivity
QVQLEESGGGLVQAGGSLRLSCAASGSTFIVNAMGWYRQAPGKERELVATISGGDSTDYADSVKGRFTISRDNAKNTVYLQMKSLKPEDTAVYYCNAEVHQYYFTPYDYWGQGTQVTFSS | low polyreactivity
QVQLEESGGGLVQAGGSLRLSCAASGSTFTFYAMGRYRQAPGKERELVAAINGRGGSTYYADSVKGRFTISRDNAKNTVYLQMNSLKPEDTAVYYCATRLYYSVRYNMGYWGQGTQVTVSS | high polyreactivity
QVQLEESGGGLVQAGGSLRLSCAASGSTFYDYAMGWYRQAPGKERELVAAINGNGDSTYYADSVKGRFTISRDNAKNTVYLQMNSLKPEDTAVYYCAAYLGWGYDYWGQGTLVTVSS | low polyreactivity
QVQLEESGGGLVQAGGSLRLSCAASGSTFYGYGMGWYRQAPGKERELVAAITGSGDTTYYADSVKGRFTISRDNAKNTVYLQMNSLKTEDTAVYYCNARWHAEYDYWGQGTQVTVSS | low polyreactivity
QVQLEESGGGLVQAGGSLRLSCAASGSTFYKYAMGWSRQAPGKERELVASITWSGTSTYYADSVKGRFTISRDNAKNTVYLQMNSLKPEDTAVYYCNAGLEYYYWGYTWEFDYWGQGTQVTVSS | low polyreactivity
QVQLEESGGGLVQAGGSLRLSCAASGSTFYVYAMGWYIQAPGKERELVAAITDSGGSTYADSVKGRFTISRDNAKNTVYLQMNSLKPEDTAVYADSTYTWYYYYWGQGTQVTVSS | low polyreactivity
